Experimental data taken from US20170240637A1 (Memorial Sloan Kettering, published 2017).

T1: 4Ig-B7H3 fused to mouse Fc (B7H3-mFc) (human, UniProt Q5ZPR3 29-466, limits assumed, biotinylated on primary amines (NHS-biotin) in the experiment of paragraph 316)
T1 construct: Expressed in DG44 CHO cells; also called 4Ig-B7H3-Fc; 4Ig-B7H3-mFc; not shown: mouse Fc
T1 sequence (looked up): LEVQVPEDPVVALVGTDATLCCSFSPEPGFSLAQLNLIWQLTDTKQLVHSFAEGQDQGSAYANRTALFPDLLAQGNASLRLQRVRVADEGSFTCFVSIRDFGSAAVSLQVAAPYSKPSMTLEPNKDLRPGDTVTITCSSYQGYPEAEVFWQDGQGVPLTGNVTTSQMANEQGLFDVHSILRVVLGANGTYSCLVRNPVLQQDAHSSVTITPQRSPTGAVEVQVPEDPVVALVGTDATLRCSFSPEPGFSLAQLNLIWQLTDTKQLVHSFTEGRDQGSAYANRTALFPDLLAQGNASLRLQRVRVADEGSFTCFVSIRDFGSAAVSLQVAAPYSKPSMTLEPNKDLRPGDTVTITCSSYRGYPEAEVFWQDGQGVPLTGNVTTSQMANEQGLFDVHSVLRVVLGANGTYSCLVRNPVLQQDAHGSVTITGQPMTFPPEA

T2: wild type 2Ig-B7H3-mFc (human, UniProt Q5ZPR3-2 29-248, limits assumed)
T2 construct: Q5ZPR3 canonical entry is the 4Ig isoform; the 2Ig form is its shorter isoform; also called 2Ig-B7H3-Fc; WT 2Ig-B7H3-Fc; not shown: mouse Fc
T2 sequence (looked up): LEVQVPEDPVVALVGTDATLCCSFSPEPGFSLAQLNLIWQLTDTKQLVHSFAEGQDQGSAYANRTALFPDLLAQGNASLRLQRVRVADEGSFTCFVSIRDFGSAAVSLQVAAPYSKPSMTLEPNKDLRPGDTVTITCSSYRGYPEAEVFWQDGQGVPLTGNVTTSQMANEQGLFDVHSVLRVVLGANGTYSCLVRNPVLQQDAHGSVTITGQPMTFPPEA

T3: 2Ig-B7H3 without Fc fusion (human, UniProt Q5ZPR3-2 29-245, limits assumed)
T3 construct: also called 2IgB7H3 (R&D)
T3 sequence (looked up): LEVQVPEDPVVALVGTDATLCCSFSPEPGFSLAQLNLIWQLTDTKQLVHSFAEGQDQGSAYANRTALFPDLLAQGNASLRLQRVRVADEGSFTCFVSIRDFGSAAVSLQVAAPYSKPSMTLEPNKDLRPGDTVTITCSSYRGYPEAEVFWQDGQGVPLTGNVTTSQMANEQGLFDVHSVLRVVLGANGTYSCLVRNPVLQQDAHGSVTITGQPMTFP

T4: 4Ig-B7H3 (human, UniProt Q5ZPR3 27-461, limits assumed)
T4 construct: also called 4Ig-B73H3
T4 sequence (looked up): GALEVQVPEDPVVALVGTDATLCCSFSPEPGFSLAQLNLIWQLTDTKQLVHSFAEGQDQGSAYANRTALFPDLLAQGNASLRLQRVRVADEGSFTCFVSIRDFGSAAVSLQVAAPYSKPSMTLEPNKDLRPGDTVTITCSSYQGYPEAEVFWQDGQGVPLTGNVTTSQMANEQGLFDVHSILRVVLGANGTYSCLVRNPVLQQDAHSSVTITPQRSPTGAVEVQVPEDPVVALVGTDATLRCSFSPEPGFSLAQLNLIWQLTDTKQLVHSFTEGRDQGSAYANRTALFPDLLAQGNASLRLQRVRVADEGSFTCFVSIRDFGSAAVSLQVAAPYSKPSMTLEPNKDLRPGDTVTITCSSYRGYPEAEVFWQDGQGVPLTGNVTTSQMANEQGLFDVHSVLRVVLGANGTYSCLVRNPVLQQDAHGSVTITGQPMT


What was measured:
[1] = target: T1, 4Ig-B7H3 fused to mouse Fc (B7H3-mFc); experiment: SPR, IgG on 4Ig-B7H3-Fc
Method: (§1) In brief, B7H3 antigen (either 2Ig-B7H3, 4Ig-B7H3, 2Ig-B7H3-mFc, 4Ig-B7H3-mFc), was directly immobilized onto the CM5 sensor chip via […]. Reference surface was set up for nonspecific binding and refractive index changes. […] The association and dissociation phase data were fitted simultaneously to a 1:1 model by using BIAevaluation 3.2. All the experiments were done at 25° C.

wild type 2Ig-B7H3-mFc = target: T2, wild type 2Ig-B7H3-mFc; experiment: SPR, IgG on 2Ig-B7H3-mFc
Method: as §1

[2] = target: T3, 2Ig-B7H3 without Fc fusion; experiment: SPR, IgG on 2Ig-B7-H3 without Fc fusion
Method: as §1

4Ig-B7H3 [3] = target: T4, 4Ig-B7H3; experiment: SPR, IgG on 4Ig-B7-H3 without Fc fusion
Method: as §1

4Ig-B7H3 [4] = target: T4, 4Ig-B7H3; experiment: SPR (Biacore), scFv; antigen not given
Method: (§2) In brief, B7H3 antigen (either 2Ig-B7H3, 4Ig-B7H3, 2Ig-B7H3-mFc, 4Ig-B7H3-mFc), was directly immobilized onto the CM5 sensor chip via […]. Reference surface was set up for nonspecific binding and refractive index changes. For analysis of the kinetics of interactions, varying concentrations of scFvs were injected at flow rate of 30 μl/min using running buffer containing 10 mM HEPES, 150 mM NaCl, 3 mM EDTA, and 0.05% Surfactant P-20 (pH 7.4). The association and dissociation phase data were fitted simultaneously to a 1:1 model by using BIAevaluation 3.2. All the experiments were done at 25° C.

4Ig-B7H3 [5] = target: T4, 4Ig-B7H3; experiment: SPR (Biacore T-100), 4Ig-B7H3 on CM5 chip, scFv injected
Method: as §2

4Ig-B7H3 [6] = target: T4, 4Ig-B7H3; experiment: SPR
4Ig-B7H3 [7] = target: T4, 4Ig-B7H3; experiment: SPR, antigen on CM5 chip
Method: as §2

Binder	Kd (4Ig-B7H3 [4]) [nM]	koff (4Ig-B7H3 [4]) [s⁻¹]	kon (4Ig-B7H3 [4]) [M⁻¹ s⁻¹]	Kd (4Ig-B7H3 [5]) [nM]	koff (4Ig-B7H3 [5]) [s⁻¹]	kon (4Ig-B7H3 [5]) [M⁻¹ s⁻¹]	other results
hu8H9 H3L3 IgG1 (antibody, V domains shown) VH: QVQLVQSGAEVVKPGASVKLSCKASGYTFTNYDINWVRQRPEQGLEWIGWIFPGDGSTQYNEKFKGKATLTTDTSTSTAYMELSSLRSEDTAVYFCARQTTATWFAYWGQGTLVTVSS VL: EIVMTQSPATLSVSPGERVSLSCRASQSISDYLHWYQQKSHESPRLLIKYASQSISGIPARFSGSGSGSEFTLTINSVEPEDVGVYYCQNGHSFPLTFGQGTKLELKR							Kd [1]: 6.6 nM; koff [1]: 0.0452 s⁻¹; kon [1]: 6.83e+06 M⁻¹ s⁻¹; Kd (wild type 2Ig-B7H3-mFc): 7.5 nM; koff (wild type 2Ig-B7H3-mFc): 0.035 s⁻¹; kon (wild type 2Ig-B7H3-mFc): 4.67e+06 M⁻¹ s⁻¹; Kd [2]: 45 nM; koff [2]: 0.000607 s⁻¹; kon [2]: 13500 M⁻¹ s⁻¹; Kd (4Ig-B7H3 [3]): 33 nM; koff (4Ig-B7H3 [3]): 0.000677 s⁻¹; kon (4Ig-B7H3 [3]): 20500 M⁻¹ s⁻¹
hu8H9 H3L3 scFv (scFv, also called parental hu8H9 H3L3; not shown: FLAG and His tags) scFv: QVQLVQSGAEVVKPGASVKLSCKASGYTFTNYDINWVRQRPEQGLEWIGWIFPGDGSTQYNEKFKGKATLTTDTSTSTAYMELSSLRSEDTAVYFCARQTTATWFAYWGQGTLVTVSSGGGGSGGGGSGGGGSEIVMTQSPATLSVSPGERVSLSCRASQSISDYLHWYQQKSHESPRLLIKYASQSISGIPARFSGSGSGSEFTLTINSVEPEDVGVYYCQNGHSFPLTFGQGTKLELKR	144	0.000919	6380	144	0.000919	6380	
hu8H9 3.1 scFv (scFv, not shown: FLAG and His tags) scFv: QVQLVQSGAEVVKPGASVKLSCKTSGYTFTNYDINWVRQRPGQGLEWIGWIFPGDDSTQYNEKFKGKATLTTDTSTSTAYMELSSLRSEDTAVYFCARQTTGTWFAYWGQGTLVTVSSGGGGSGGGGSGGGGSEIVMTQSPATLSVSPGERVTLSCRASQSISDYLYWYQQKSHESPRLLIKYASQSISGIPARFSGSGSGSEFTLTINSVEPEDVGVYYCQNGHSFPLTFGQGTKLELKR	0.92	9.52e-05	104000				
hu8H9 4.1 scFv (scFv, not shown: FLAG and His tags) scFv: QVQLVQSGAEVVKPGASVKVSCKASGYTFTNYDINWVRQRPEQGLEWIGWIFPGDGSTQYNEKFKGRVTMTTDTSTSTVYMELSSLRSEDTAVYFCARQTTATWFAYWGQGTLVTVSSGGGGSGGGGSGGGGSEIVMTQSPATLSVSPGERVTLSCRASQSISDYLHWYQQKSHQAPRLLIKYASQSISGIPARFSGSGSGSEFTLTISSLQPEDFGVYYCQNGHSFPLTFGQGTKLELKR	45.7	0.000557	12200				
hu8H9 clone S7.2 scFv (scFv, not shown: FLAG and His tags) scFv: QVQLVQSGAEVVKPGASCKLSCKTSGYTFTNYDINWVRQRPGQGLEWIGWIFPGDGSTQYNEKFKGKATLTTDTSTSTAYMELSSLRSEDTAVYFCARQTTATWFAYWGQGTLVTVSSGGGGSGGGGSGGVGSEIVMTQSPATLSVSPGERVTLSCRASQSIGDYLYWYQQKSHESPRLLIKYASQSISGIPARFSGSGSGSEFTLTINSVEPEDVGVYYCQNGHSFPLTFGQGTKLELKR				5.6	0.000143	25400	
hu8H9 clone S7.17 scFv (scFv, not shown: FLAG and His tags) scFv: QVQLVQSGAEVVKPGASVKLSCKTSGYTFTNYDINWVRQRPGQGLEWVGWIFPGDGSTQYNEKFKGKATLTTDTSTSTAYMELSSLRSEDTAVYFCARQTTSTWFAYWGQGTLVTVSSGGGGSGGGGSGGGGSEIVMTQSPATLSVSPGERVTLSCRASQPISDYLYWYQQKSHESPRLLIKYASQSISGIPARFSGSGSGSEFTLTINSVEPEDVGVYYCQNGYSFPLTFGQGTKLELKR				2.2	0.000113	51000	fold affinity improvement against parental hu8H9 H3L3 scFv (4Ig-B7H3 [6]): > 50 fold
hu8H9-H1L1 IgG1 (antibody, V domains shown) VH: QVQLVQSGAEVKKPGASVKLSCKASGYTFTNYDINWVRQAPGQGLEWIGWIFPGDGSTQYNEKFKGKATLTTDTSTSTAYMELSSLRSEDTAVYFCARQTTATWFAYWGQGTLVTVSS VL: EIVMTQSPATLSVSPGERVTLSCRASQSISDYLHWYQQKPGQAPRLLIKYASQSISGIPARFSGSGSGTEFTLTISSVQPEDVGVYYCQNGHSFPLTFGQGTKLEIKR							Kd (4Ig-B7H3 [7]): 112 nM
hu8H9 5.1 scFv (scFv, not shown: FLAG and His tags) scFv: QVQLVQSGAEVVKPGASVKVSCKTSGYTFTNYDINWVRQRPGQGLEWIGWIFPGDDSTQYNEKFKGRVTMTTDTSTSTVYMELSSLRSEDTAVYFCARQTTGTWFAYWGQGTLVTVSSGGGGSGGGGSGGGGSEIVMTQSPATLSVSPGERVTLSCRASQSISDYLYWYQQKSHQAPRLLIKYASQSISGIPARFSGSGSGSEFTLTISSLQPEDFGVYYCQNGHSFPLTFGQGTKLELKR	1.7	9.84e-05	58800				

Second part, led by results:

Kd (4Ig-B7H3 [4]) [nM]	koff (4Ig-B7H3 [4]) [s⁻¹]	kon (4Ig-B7H3 [4]) [M⁻¹ s⁻¹]	Kd (4Ig-B7H3 [5]) [nM]	koff (4Ig-B7H3 [5]) [s⁻¹]	kon (4Ig-B7H3 [5]) [M⁻¹ s⁻¹]	Binder	other results
			1.2	9.99e-05	86100	hu8H9 clone S7.22 scFv (scFv, not shown: FLAG and His tags) scFv: QVQLVQSGAEVVKPGASVKLSCKTSGYTFTNYDINWVRQRPGQGLEWIGWIFPGDDSTQYNEKFKGKATLTTDTSTSTAYMELSSLRPEDTAVYFCARQTTGTWFAYWGQGTLVTVSSGGGGSGGGGSGGGGSEIVMTQSPATLSVSPGERVTLSCRASQSISDYLYWYQQKSHESPRLLIKYASQSIPGIPARFSGSGSGSEFTLTINSVEPEDVGVYYCQNGHSFPLTFGQGTKLELKR	fold affinity improvement against parental hu8H9 H3L3 scFv (4Ig-B7H3 [6]): > 50 fold; fold binding improvement against parental hu8H9 H3L3 scFv (4Ig-B7H3 [6]): > 100 fold
			277	0.00132	4750	hu8H9 clone S7.28 scFv (scFv, not shown: FLAG and His tags) scFv: QVQLVQSGAEVVKPGASVKLSCKTSGYTFTNYDINWVRQRPGQGLEWIGWIFPGDGSTQYNEKFKGKATLTTDTSTSTAYMELSSLGSEDTAVYFCTRQTTATWFAYWGQGTLVTVSSGGGGSGGGGSSGGGSEIVMTQSPATLSVSPGERVTLSCRASQSIGDYLYWYQQKSHESPRLLIKYASQSISGIPARFSGSGSGSEFTLTINSVEPEDVGVYYCQNGHSFPLTFGQGTKLELKR	
			2.7	0.000152	55900	hu8H9 clone S7.29 scFv (scFv, not shown: FLAG and His tags) scFv: QVQLVQSGAEVVKPGASVKLSCKTSGYTFTNYDINWVRQRPGQGLEWIGWIFPGDGSTQYNEKFKGKATLTTDTSTSTAYLELSSLGSEDTAVYFCARQTTGTWFAYWGQGTLVTVSSGGGGSGGGGSGGGGSEIVMTQSPATLSVSPGERVTLSCRASQSISDYLYWYQQKSHESPRLLIKYASQSISGIPARFSGSGSGSEFTLTINSVEPEDVGVYYCQNGHSFPLTFGQGTKLELKR	fold affinity improvement against parental hu8H9 H3L3 scFv (4Ig-B7H3 [6]): > 50 fold
